According to paper PMC6174329, “Functional Characterization of Arabidopsis PHL4 in Plant Response to Phosphate Starvation”:

Legend:
MBP-PHL4-His [1] = target: T1, MBP-PHL4-His (Arabidopsis thaliana? (Columbia-0?), UniProt Q8GXC2 1-397); assay: EMSA; 4 ug protein, 10 fmol probe; EMSA as described by Sun et al. (2016); buffer, salt, pH and temperature not given; 4 ug MBP-PHL4, 10 fmol biotin probe; conditions: protein: recombinant; tags: N-terminal MBP; C-terminal 6xHis; chain copies: 2; label: biotin (on F strand); blunt
T1 sequence: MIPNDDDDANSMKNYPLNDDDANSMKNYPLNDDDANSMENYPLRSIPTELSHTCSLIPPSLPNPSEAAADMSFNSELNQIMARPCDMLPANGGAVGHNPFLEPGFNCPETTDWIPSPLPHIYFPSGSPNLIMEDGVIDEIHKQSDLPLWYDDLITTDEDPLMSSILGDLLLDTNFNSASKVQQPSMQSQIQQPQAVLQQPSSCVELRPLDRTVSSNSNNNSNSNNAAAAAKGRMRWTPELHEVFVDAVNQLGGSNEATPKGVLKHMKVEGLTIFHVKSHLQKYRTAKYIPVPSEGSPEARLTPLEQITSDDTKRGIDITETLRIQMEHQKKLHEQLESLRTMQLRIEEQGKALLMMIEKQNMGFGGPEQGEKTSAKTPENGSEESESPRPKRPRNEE

MBP-PHL4-His [2] = target: T1, MBP-PHL4-His; assay: competition; unlabeled probe at 200:1, 800:1 and 1200:1 molar excess over labeled probe; EMSA as described by Sun et al. (2016); buffer, salt, pH and temperature not given; 4 ug MBP-PHL4, 10 fmol biotin probe; conditions: protein: recombinant; tags: N-terminal MBP; C-terminal 6xHis; chain copies: 2; blunt

B1: 2xP1BS probe (dsDNA)
DNA 1: ATTAACGAATATTCCGTACAATTAACGAATATTCCGTACA
DNA 2: TGTACGGAATATTCGTTAATTGTACGGAATATTCGTTAAT
B1: binds (MBP-PHL4-His [1]).

B2: 2xP1BS unlabeled competitor (dsDNA)
DNA 1: ATTAACGAATATTCCGTACAATTAACGAATATTCCGTACA
DNA 2: TGTACGGAATATTCGTTAATTGTACGGAATATTCGTTAAT
B2: binds (MBP-PHL4-His [2]).
